How the values were obtained:
[1] = target: RSV postfusion F (postF), F deltaFP (respiratory syncytial virus, UniProt P03420 26-513); assay: BLI, IgG on sensor
[2] = target: RSV prefusion F (preF), DS-Cav1 (respiratory syncytial virus, UniProt P03420 26-513); assay: BLI, IgG on sensor, 100 nM antigen
[3] = target: RSV fusion glycoprotein (RSV F) on RSV-A2 virus (respiratory syncytial virus, UniProt P03420 26-574); assay: cell-based or functional assay
[4] = target: RSV F on recombinant mKate-RSV B 18537 virus (Respiratory syncytial virus B 18537, UniProt P13843 26-574); assay: cell-based or functional assay
[5] = target: RSV F on recombinant mKate-RSV A2 virus (Respiratory syncytial virus A2, UniProt P03420 26-574); assay: cell-based or functional assay
[6] = target: T1, RSV postfusion F, subtype B (postF trimer) (Respiratory syncytial virus subtype B, UniProt P13843 26-513); assay: BLI, IgG apparent affinity
T1 construct: also called Postfusion subtype B

[7] = target: RSV F on RSV subtype A virus (RSV-A2) (Respiratory Syncytial Virus, subtype A, …, UniProt P03420 26-574); assay: cell-based or functional assay
[8] = target: RSV prefusion F (preF), DS-Cav1 stabilized trimer, subtype A (Respiratory Syncytial Virus, subtype A, UniProt P03420 26-513); assay: BLI, IgG on anti-human IgG sensors, 100 nM antigen, apparent KD

Binder	binding result [1]	Kd [2] [nM]	Neutralization IC50 (RSV subtype A) [3] [µg/mL]	other results
ADI-41450 (antibody, V domains shown, IgG1) VH: EVQLVESGGGLVKPGGSLRLSCAASGFAFSSYGINWVRQVPGKRLEWVSSISGGSSFINYADSVKGRFTISRDNAGNSVYLQMNSLRAEDTAVYFCARESYGSGSSLNWFDPWGQGTLVTVSS VL: QSVLTQPPSVSGAPGQRVTISCTGSGSNIGAGYDVHWYQQLPGIAPRLVIFGNRNRPSGVPDRISGSKSDTSASLAITGLQAEDEGDYYCQSYDKRLSGWVFGGGTKLTVL	no binding (tested: 100 nM antigen)	0.613	0.21	
ADI-41419 (antibody, V domains shown, IgG1) VH: EVQLVESGGGLVQPGRSLRLSCAASGFTFDDYAMHWVRQAPGKGLEWVSGISWNSGSVGYSDSVKGRFTISRDNAKSSLYLQMNNLRAEDTALYYCARDMAHTQDYFDTSEYDSWGQGTLVTVSS VL: QPVLTQPASVSGSPGQSITISCTGTSSDIGAYNYVSWYQQHPGKAPKLVVYEVNNRPSGISNRFSGSKSGNTASLTISGLQAEDEADYYCSSYTVSATLVFGGGTKLTVL	no binding (tested: 100 nM antigen)	0.305	0.01	
ADI-21086 (antibody, V domains shown) VH: EVQLVETGGGLVKPGGSLRLSCAASPFAFSNYYMSWIRQAPGKGLEWISNISGGSTFTNYADSVKGRFTISRDNARNSLYLLMNNLRTEDTAVYYCAREASVAAGTPEGFDVWGQGTTVTVSS VL: QSVVTQPPSVSGAPGQRVTISCTGSSSNIGAGYDVNWYQQFPGTAPKLLIYGNRNRPSGVPARFSGSKSGASASLAITGLQAEDEADYYCHSYDSGLSGSVFGGGTKLTVL				Neut IC50 (ug/ml) subtype B [4]: 0.47 µg/mL; Neut IC50 (ug/ml) subtype A [5]: 0.11 µg/mL; binding result [6]: no binding
ADI-41421 (antibody, V domains shown, IgG1) VH: QVQLVESAAEVKRPGASLKVSCKASGYTFIDYDISWVRQAPGQGLDWMGWISTYDGSAKYPENLQARVAMTTDTSTSTAYMELESLTSDDTAVYYCARARRGSSGWVSTTGPTPFFDYWGRGTLVTVSS VL: SYELTQPPSVSVSPGQTARITCSGDALPKRYAYWYQQKSGQAPVLVIYEDNKRPSGIPERFSGSSSGTVATLTISGAQVEDEADYSCYSTDATGNHRGLFGGGTKLTVL	no binding (tested: 100 nM antigen)	2.52	4.78	
ADI-41449 (antibody, V domains shown, IgG1) VH: EVQLVESGGGLVKPGGSLRLSCAASGFSFSSYRVNWVRQAPGKGLEWVSSITGGSSFIDYADSVKGRFTISRDNAKNSLFLQMNSLRAEDTAVYFCARDSMTTVTNSLAFDIWGQGTMVTVSS VL: QSVLTQPPSVSGAPGQRVTISCTGSSSNIGVGYDVQWYQQLPGTAPKLLIYSNNKRPSGVPDRFSGSKSGTSASLAITGLQAEDEADYYCQSYDRSLSVVFGGGTKVTVL	no binding (tested: 100 nM antigen)	0.508	0.16	
ADI-21082 (antibody, V domains shown) VH: EVQLVESGGGLVKPGGSLKLSCVASGLKFSSYSMNWVRQAPGKGLEWVSSVSAGSSYTNYADSVKGRFTISRDNAKNSLYLQMNSLRVDDTAVYYCATERCSGGSCYLHGFDPWGQGTTVTVSS VL: QSVLTQPPSVSGAPGQRVTISCTGSSSNIGAGYDVHWYQQLPGTAPKLLIFDNIIRPSGVPDRFSGSKSGTSASLAITGLQADDEADYYCQSYDKSGDYVFGTGTKVTVL				Neut IC50 (ug/ml) subtype B [4]: 0.25 µg/mL; Neut IC50 (ug/ml) subtype A [5]: 0.09 µg/mL; Kd [6]: 6.17 nM
ADI-41434 (antibody, V domains shown, IgG1; also called Ab 718) VH: EVQLVESGGGLVQPGRSLRLSCEASGFTFDDYAMHWVRQTPGKGLEWVSGISWNSGSIVYADSVKGRFTISRDNAKNSLYLQMHSLRPEDTALYYCAKDNYTFGNYYYYYGMDVWGQGTTVTVSS VL: EIVLTQSPVTLSVSPGERATLSCRASQNVISNLAWYQQKPGQAPRLLIYGASTRATGIPARFSGSGSGTEFTLTISSLQSEDFAVYYCQQYNNWPLSFGGGTKVEIK	no binding (tested: 100 nM antigen)	0.613	> 25	
ADI-41442 (antibody, V domains shown, IgG1; also called Ab 726) VH: EVQLLESGGGLVQPGRSLRLSCAASGFTFDDYAMHWVRQAPGKGLEWVSGISWHSGSIVYADSVKGRFTISRDNAKNSLYLQMSSLRAEDTALYYCVKDHYNWNDNPHFHYGLDVWGQGTTVTVSS VL: EIVLTQSPATLSVSPGERATLSCRASQSVISNLAWYQQKPGQAPRLFIYGASTRATGIPARFSGSGSGTEFTLTISSLQSEDFAVYFCQQYNNWPITFGQGTRLEIK	no binding (tested: 100 nM antigen)	0.521	0.04	
ADI-41401 (antibody, V domains shown, IgG1) VH: EVQLLESGGGLVHPGRSLRLSCAASGFTFGDYAMHWVRQAPGKGLEWVSGISWNSDTIEYADSVKGRFTISRDNAKNSLYLQMNSLRAEDTALYYCAKDFGSSWEAYFDYWGQGTLVTVSS VL: DIVLTQSPSYLSASVGDRVTITCRASQSISTYLNWYQQKPGKAPKLLISAASSLQSGVTSRFSGSGSGTDFSLTISSLQPEDFATYYCQQSYSTALTFGGGTKVEIK	no binding (tested: 100 nM antigen)	3.22	> 25	
ADI-41416 (antibody, V domains shown, IgG1) VH: EVQLVESGGGLVKPGGSLRLSCAASGFKFSSYTMNWVRQAPGKGLEWVSSITGGSSFINYADSVKGRFTISRDNAKNSLYLQMVSLRAEDTAVYYCARDLSSHITIFGAVSDYWGRGTTVTVSS VL: QSVLTQPPSVSGAPGQRVTISCTGSSSNIGAGYDAHWFQQLPGSAPKLLIYANTNRPSGVPDRFSGSKSGTSASLAITGLQAEDEADYYCQSYDSTLSVVFGGGTKLTVL	no binding (tested: 100 nM antigen)	0.444	0.05	
ADI-21089 (antibody, V domains shown) VH: EVQLLESGGGLVKPGGSLRLSCVASGFRFTSYSMNWVRQAPGKGLEWVSSISASSSYVDYADSLKGRFTISRDNAQNSLFLQMNSLRAEDTAVYYCARDYYDSGNYHSPFPMDVWGQGTTVTVSS VL: QSVLTQPPSVSGAPGQRVTISCTGSRSNIGAGYDVHWYQQLPGTAPKLLIYGNNKRPSGVPDRFSGSKSGTSASLAITGLQAEDEADYYCQSYDSGPIFGGGTKVTVL				Neut IC50 (ug/ml) subtype B [4]: 0.17 µg/mL; Neut IC50 (ug/ml) subtype A [5]: 0.27 µg/mL; Kd [6]: 3.34 nM
ADI-41352 (antibody, V domains shown, IgG1) VH: EVQLVESGGGLVQPGGSLRLSCAASGFTFSSYRMNWVRQAPGKGLEWVSYIDISSSTIYYADSVKGRFTISRDNAKNSLYLQMNSLRAEDTAVYYCARDQLVWEPLIRNHYYYAMDVWGQGTTVTVSS VL: not shown	no binding (tested: 100 nM antigen)	3.36	> 25	
ADI-41447 (antibody, V domains shown, IgG1) VH: EVQLLESGGGLVQPGGSLRLSCAASGFTFSTYAMNWVRQAPGKGLEWVSTISGSGGSTYYGDSVKGRFTISRDNSKNTLYLQMNSLRAEDTAVYYCAKAPTPWCSGGSCYVSYWGQGTLVTVSS VL: DIVMTQTPGTLSLSPGERGTLSCRASQSVSSSYLAWYQQKPGQAPRLLIYGASSRATGIPDRFGGSGSGTDFTLTISTLEPEDFAVYYCQQYQSSPWTFGQGTKLEIK	no binding (tested: 100 nM antigen)	54.1	> 25	
ADI-41377 (antibody, V domains shown, IgG1; also called Ab 674) VH: QVQLQQSGPGLVKPSQTLSLTCAISGDSVSSDSATWNWIRQSPSRGLEWLGRAYYRSKWYYDYAPSVKSRLTINPDTSKNQFSLQLTSVTPQDTAVYFCARDLPPLEYFDGSGYYFLDHWGQGTLVTVSS VL: SYELTQPPSVSVAPGQTARLSCGGHNIGSKSVQWYQQKPDQAPVLVVYDDHDRPSGIPDRFSGSNSGDMATLTISRVEAGDEADYYCQVCESGRDPMVFGGGTKVTVL	no binding (tested: 100 nM antigen)	1.74	0.24	
ADI-41398 (antibody, V domains shown, IgG1; also called Ab 691) VH: EVQLLESGAEVKKPGASVKVSCKASGYTFTNYGISWVRQAPGQGLEWMGWISAYNGNTNYAQKLQGRVTMTTDTSTSTAYMELRSLRSDDTAVYYCARDGGVIAAATLGYWGQGTLVTVSS VL: EIVLTQSPLSLPVTLGQPASISCRSSQSLVYSDGNTYLSWFQQRPGQSPRRLIYKISNRDSGVPNRFSGSGSGTDFTLKISRVEAEDVGIYYCMQGIYWPPTFGQGTKVEIK	no binding (tested: 100 nM antigen)	0.6	0.17	
ADI-41356 (antibody, V domains shown, IgG1) VH: QVQLVQSGAEVKKPGASVKVSCKASGYTFTNYDINWVRQATGQGLEWMGWMNRNNGNTGYARKFQGRVTMTRNTSISTAYMELSSLRSEDTAVYYCARGGDFYAMDVWGQGTTVTVSS VL: SYELTQPPSVSVSPGQTASITCSGDKLGDKYASWYQQKPGQSPVLVIYQDTKRPSGVPERFSGSNSGNTATLTISGTQAVDEADYYCQVWDGSIAFGGGTKVTVL	no binding (tested: 100 nM antigen)	0.725	0.115	
ADI-41828 (antibody, V domains shown) VH: EVQLVESGGGLVQPGGSLRLSCADSDFTFSTYSMNWVRQAPGKGLEWISYITGRSSAIYYADSVKGRFTISRDNAKNSLFLQMNSLRAEDTAVYYCTTFMAGYSFGHGDAFDIWGQGTTVTVSS VL: SYELTQPPSVSVAPGQTARITCGGNNIGSKSVHWYQQKPGQAPVLVVYDDSDRPSGIPERFSGSNSGNTATLTISRVEAGDEADYYCQVWNSNSDHPHWVFGGGTQLTVL				Neutralization IC50 (RSV subtype A) [7]: 5.53 µg/mL; Kd [8]: 0.241 nM

Reference: US20260258115A1 (MAPP BIOPHARMACEUTICAL, published 2026)
